Data: publication PMC6589827 (Biochemistry, 2019)

Assays:
EcDHFR = EcDHFR (Escherichia coli, UniProt P0ABQ4); conditions: for decrease of kcat, DHF reduction by EcDHFR: crowder at 50 mg/mL
apo-EcDHFR = apo-EcDHFR (Escherichia coli, UniProt P0ABQ4); experiment: ITC, NADP+ binding to apo-EcDHFR; set-up: species or system E. coli
R67 DHFR = R67 DHFR (Escherichia coli, UniProt P00383); experiment: Progress curve kinetics, reduction of DHF by R67 DHFR; assay type: biochemical; conditions: saturating NADPH, progress curves
R67 DHFR-NADP^+ = R67 DHFR-NADP^+ (Escherichia coli, UniProt P00383); experiment: ITC, DHF binding to binary complex of R67 DHFR and NADP+
[1] = ITC titration of folate into the crowders; assay type: binding
hemoglobin = conditions: read-out: Kd of folate for central cavity of hemoglobin; cited from earlier work

EcDHFR, sequence (P0ABQ4 whole entry): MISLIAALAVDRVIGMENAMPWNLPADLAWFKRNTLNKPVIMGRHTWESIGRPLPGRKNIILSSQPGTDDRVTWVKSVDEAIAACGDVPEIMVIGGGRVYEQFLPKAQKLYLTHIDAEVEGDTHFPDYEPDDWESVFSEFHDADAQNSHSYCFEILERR
apo-EcDHFR, sequence (P0ABQ4 whole entry): as above
R67 DHFR-NADP^+, sequence (P00383 whole entry): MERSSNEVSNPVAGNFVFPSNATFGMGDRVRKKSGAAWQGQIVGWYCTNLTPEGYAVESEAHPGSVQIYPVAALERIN
R67 DHFR, sequence (P00383 whole entry): as above

## casein
EcDHFR; over the range of concentrations used
  effect on kcat, DHF reduction by EcDHFR: did not alter the kcat

## lysozyme: hen egg-white lysozyme, 14,300 Da, protein crowder
apo-EcDHFR; crowder at 50 mg/mL
  decrease of affinity of NADP^+ for EcDHFR: 5 fold
R67 DHFR
  effect on efficiency (kcat/KM) of R67 DHFR reduction of DHF: increases the efficiency
EcDHFR
  decrease of kcat, DHF reduction by EcDHFR: about 60%

## Hemoglobin: bovine hemoglobin, 64,500 Da, protein crowder
R67 DHFR-NADP^+; crowder at 50 mg/mL
  weakening of R67 DHFR affinity for DHF: 5.5 fold

## Nc1nc(=O)c2nc(CNc3ccc(C(=O)N[C@@H](CCC(=O)O)C(=O)O)cc3)cnc2[nH]1 [folate]
[1]
  heat of binding on titration into the crowders: no heat of binding
hemoglobin
  Kd: ~1000 µM

B1: ovalbumin: protein crowder isolated from fresh eggs (protein, UniProt P01012 2-386, looked up)
Ovalbumin: GSIGAASMEFCFDVFKELKVHHANENIFYCPIAIMSALAMVYLGAKDSTRTQINKVVRFDKLPGFGDSIEAQCGTSVNVHSSLRDILNQITKPNDVYSFSLASRLYAEERYPILPEYLQCVKELYRGGLEPINFQTAADQARELINSWVESQTNGIIRNVLQPSSVDSQTAMVLVNAIVFKGLWEKAFKDEDTQAMPFRVTEQESKPVQMMYQIGLFRVASMASEKMKILELPFASGTMSMLVLLPDEVSGLEQLESIINFEKLTEWTSSNVMEERKIKVYLPRMKMEEKYNLTSVLMAMGITDVFSSSANLSGISSAESLKISQAVHAAHAEINEAGREVVGSAEAGVDAASVSEEFRADHPFLFCIKHIATNAVLFFGRCVSP
R67 DHFR-NADP^+; crowder added, ITC
  effect on the affinity of R67 DHFR for DHF: little effect
apo-EcDHFR; over the concentration ranges used (up to 150 mg/mL with PVP-55)
  effect on affinity of NADP^+ for apo-EcDHFR: no effect on affinity
EcDHFR
  decrease of kcat, DHF reduction by EcDHFR: about 60%
